Source: patent publication US20070160576A1, “IL-17A/F heterologous polypeptides and therapeutic uses thereof” (Genentech, Inc., priority 2001, published 2007)
“Also recorded” adds a separate entry of the source.

Experiments:
[1] = tested on: TK-10 cells; assay: IL-8 and IL-6 production in TK-10 cells (ELISA of conditioned media); format: cell-based, human; settings: for IL-8 production: IL-8 ELISA
Description: Fractions were tested by incubation with TK-10 cells for 24 hours (0.033 microliters fraction/ml of cell culture media). Conditioned media was then collected and IL-8 and IL-6 concentration measurements were performed on each fraction by ELISA. […] Gels, blots, amino acid sequence and activity assays were run on this fraction (FIG. 3). Alternatively, fraction 31 and the remaining volume of fraction 32, from the HiLoad S Sepharose run were pooled and dialyzed against Buffer A for eight hours using a 10 kD cutoff membrane and passed through a 0.2 micron filter. […] Fractions 26-43 were assayed and protein concentrations were determined by amino acid analysis. Pure IL-17A/F was identified in fractions 31-33 as a single protein with apparent molecular mass of 30-35 kD. The concentrations of fractions 31, 32 and 33 were 0.258, 0.359 and 0.291 mg/ml respectively.
IL-17A/F, IL-17 and IL-17F were incubated with TK-10 cells at the indicated concentrations for 24 hours.
TK-10 conditioned media was collected and analyzed by IL-8 ELISA and IL-6 ELISA.

[2] = target: T1, IL-17R (Homo sapiens, UniProt Q96F46); assay: SPR competition for receptor binding to immobilized IL-17; settings: IL-17R 500 nM; IL-17F at 2 ┘M
T1 construct: the extracellular domains (ECDs) of either of the two receptors IL-17R (designated PRO1) and IL-17RH1 (PRO5801)
Description: The kinetics and affinity of IL-17, IL-17E (PRO10272), or IL-17F (PRO20110) binding to IL-17R or IL-17RH1 (PRO5801) were determined by SPR measurements on a Pharmacia BIAcore 1000 instrument (Phamacia Biosensor, Piscataway N.J.). IL-17 ligand or receptor was immobilized onto a flow cell of a CM5 sensor chip via random coupling to amino groups, N-hydroxysuccinimide chemistry, by using a protocol developed by the manufacturer. An immobilization level of about 500 resonance units (RU) was obtained for IL-17R, IL-17RH1, and IL-17F, whereas IL-17 and IL-17E immobilization levels were 1200 and 1500 RU, respectively. A strong signal was obtained for IL-17R binding to immobilized IL-17. […] After blocking unreacted sites with ethanolamine, binding measurements were performed using a flow rate of 25 ┘L/min. Sensorgrams-were obtained for a series of six, two-fold serially diluted protein solutions. The highest concentration used was 1000 or 500 nM protein and the solutions were prepared in the running buffer, PBS containing 0.05% Tween-20. […] Sensorgrams were evaluated according to a 1:1 binding model by non-linear regression analysis using software supplied by the manufacturer. […] The amount of bound receptor was determined from the resonance signal obtained after completion of the association phase. […]

[3] = target: human IL-17 receptor (IL-17R, PRO1) (Homo sapiens, UniProt Q96F46); assay: Receptor/ligand interaction screening assay (immunoadhesin); format: binding
Description: In general, the assay is performed as follows. A PRO polypeptide of the present invention suspected of being a ligand for a receptor is expressed as a fusion protein containing the Fc domain of human IgG (an immunoadhesin). Receptor-ligand binding is detected by allowing interaction of the immunoadhesin polypeptide with cells (e.g. Cos cells) expressing candidate PRO polypeptide receptors and visualization of bound immunoadhesin with fluorescent reagents directed toward the Fc fusion domain and examination by microscope. Cells expressing candidate receptors are produced by transient transfection, in parallel, of defined subsets of a library of cDNA expression vectors encoding PRO polypeptides that may function as receptor molecules. Cells are then incubated for 1 hour in the presence of the PRO polypeptide immunoadhesin being tested for possible receptor binding. The cells are then washed and fixed with paraformaldehyde. The cells are then incubated with fluorescent conjugated antibody directed against the Fc portion of the PRO polypeptide immunoadhesin (e.g. FITC conjugated goat anti-human-Fc antibody). The cells are then washed again and examined by microscope. A positive interaction is judged by the presence of fluorescent labeling of cells transfected with cDNA encoding a particular PRO polypeptide receptor or pool of receptors and an absence of similar fluorescent labeling of similarly prepared cells that have been transfected with other cDNA or pools of cDNA. If a defined pool of cDNA expression vectors is judged to be positive for interaction with a PRO polypeptide immunoadhesin, the individual cDNA species that comprise the pool are tested individually (the pool is “broken down”) to determine the specific cDNA that encodes a receptor able to interact with the PRO polypeptide immunoadhesin.
In another embodiment of this assay, an epitope-tagged potential ligand PRO polypeptide (e.g., 8 histidine “His” tag) is allowed to interact with a panel of potential receptor PRO polypeptide molecules that have been expressed as fusions with the Fc domain of human IgG (immunoadhesins). Following a 1 hour co-incubation with the epitope tagged PRO polypeptide, the candidate receptors are each immunoprecipitated with protein A beads and the beads are washed. Potential ligand interaction is determined by Western blot analysis of the immunoprecipitated complexes with antibody directed towards the epitope tag. An interaction is judged to occur if a band of the anticipated molecular weight of the epitope tagged protein is observed in the Western blot analysis with a candidate receptor, but is not observed to occur with the other members of the panel of potential receptors.

[4] = target: T2, IL-17RH1 (PRO5801) (Homo sapiens, UniProt Q9NRM6); assay: SPR (BIAcore) binding measurements
T2 construct: the extracellular domains (ECDs) of either of the two receptors IL-17R (designated PRO1) and IL-17RH1 (PRO5801)
T2 sequence (Q9NRM6 18-292 limits assumed): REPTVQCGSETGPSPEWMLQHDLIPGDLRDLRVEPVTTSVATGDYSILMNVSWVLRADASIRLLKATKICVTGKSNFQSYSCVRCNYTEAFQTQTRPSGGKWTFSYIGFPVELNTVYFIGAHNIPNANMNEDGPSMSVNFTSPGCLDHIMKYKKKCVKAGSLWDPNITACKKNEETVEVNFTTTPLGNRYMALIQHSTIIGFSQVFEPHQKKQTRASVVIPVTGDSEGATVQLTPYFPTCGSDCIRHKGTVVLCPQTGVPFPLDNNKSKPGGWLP
Description: (§1) The kinetics and affinity of IL-17, IL-17E (PRO10272), or IL-17F (PRO20110) binding to IL-17R or IL-17RH1 (PRO5801) were determined by SPR measurements on a Pharmacia BIAcore 1000 instrument (Phamacia Biosensor, Piscataway N.J.). IL-17 ligand or receptor was immobilized onto a flow cell of a CM5 sensor chip via random coupling to amino groups, N-hydroxysuccinimide chemistry, by using a protocol developed by the manufacturer. An immobilization level of about 500 resonance units (RU) was obtained for IL-17R, IL-17RH1, and IL-17F, whereas IL-17 and IL-17E immobilization levels were 1200 and 1500 RU, respectively. A strong signal was obtained for IL-17R binding to immobilized IL-17. […] After blocking unreacted sites with ethanolamine, binding measurements were performed using a flow rate of 25 ┘L/min. Sensorgrams-were obtained for a series of six, two-fold serially diluted protein solutions. The highest concentration used was 1000 or 500 nM protein and the solutions were prepared in the running buffer, PBS containing 0.05% Tween-20. The sensor chip surface was regenerated between binding cycles by injection of a 25 ┘L aliquot of 0.1 M acetic acid, 0.2 M NaCl, pH 3 to elute non-covalent bound protein. Sensorgrams were evaluated according to a 1:1 binding model by non-linear regression analysis using software supplied by the manufacturer. In separate experiments to measure competition between IL-17 variants for binding receptors, a fixed concentration of receptor was incubated with a varied concentration of IL-17 protein followed by injection of this mixture onto a flow cell having immobilized IL-17 protein. The amount of bound receptor was determined from the resonance signal obtained after completion of the association phase.

[5] = target: T1, IL-17R; assay: SPR (BIAcore) binding measurements
Description: as §1

| Substance | IL-8 production ([1]; TK-10 cells, 24 hours) | competition for binding of IL-17R to immobilized IL-17 [2] | binding to human IL-17 receptor (IL-17R, PRO1) [3] | SPR binding to IL-17RH1 (in words) [4] | SPR signal for binding to immobilized IL-17R ([5]; IL-17R immobilized) | SPR binding to IL-17R (in words) ([5]; IL-17R in solution, cytokine immobilized) | Koff × 10^4 ([5]; immobilized IL-17, ligand IL-17R, value is Koff × 10^4) [s^−1] | Kon × 10^−5 ([5]; immobilized IL-17, ligand IL-17R, value is Kon × 10^−5) [M^−1 s^−1] | difference in activity (potency) from IL-17 and IL-17F ([1]; IL-8 induction in TK-10 cells, greater activity than IL-17F) | IL-6 production ([1]; TK-10 cells, 24 hours, IL-6 ELISA) | IL-8 production ([1]; TK-10 cells, 24 hours, listed as Fraction 38) |
| --- | --- | --- | --- | --- | --- | --- | --- | --- | --- | --- | --- |
| IL-17: human IL-17 cytokine, SEQ ID NO:3 | production of IL-8 | efficiently block binding | binds to | no binding was observed | weak signal | strong signal; also recorded: modest binding affinity | 6.7 | 0.093 | – | – | – |
| IL-17A/F: novel human cytokine, covalent heterodimer of one IL-17 chain and one IL-17F chain | robustly induced IL-8 production; also recorded: induce IL-8 production; also recorded: potent IL-8 inducing activity | – | – | – | – | – | – | – | roughly an order of magnitude | induced production of IL-6 | robust activity |
